Assay results taken from PMC9433702, “Functional characterization of a catalytically promiscuous tryptophan decarboxylase from camptothecin-producing Camptotheca acuminata” (Frontiers in Plant Science, 2022).

Substrate: N[C@@H](Cc1c[nH]c2ccccc12)C(=O)O
Experiment: HPLC-DAD quantitation of tryptamine, non-linear regression
Type: biochemical, Camptotheca acuminata
Settings: 4 μM PLP, 0.16 μM enzyme, 50 mM phosphate buffer pH 7.6, 37°C

B1: CaTDC3 (Camptotheca acuminata) (protein)
chain: MGSLDSNYDTESPASVGQFNPLDPEEFRKQAHCIVDFIADYYKNIESYPVLSQVDPGYLHSRLPKNAPYRSEPFESILKDVQKDIIPGMTHWMSPNFFAYFPATVSSAAFVGEMLCTCFNSVGFNWLASPAATELEMVVIDWLANMLKLPKSFMFSGTGGGVLQGTTSEAILCTLIAARDRALEIVGVKNFNKLVVYGSDQTHSTYAKACKLAGILPCNIRSIPTTADSNFSVSPLLLRRAIEADKAAGMVPLYICATVGTTSTTAIDPLSSLADVANDYGVWFHVDAAYAGSACICPEFRHYLDGIERADSLSLSPHKWLLSYLDCCCLWVKSPSLLVKALSTDPEYLKNQPSESKSVVDYKDWQVGTGRRFKALRLWFVMRSYGVANLQSHIRTDVQMAKMFEGFVKSDPRFEILVPRVFSLVCFRLNPISGSDPTGTEALNRKLLDWVNSTGRVYMTHTKVGGIYMLRFAVGATLTEKRHVSSAWKLIKEGADVLLKED
notes: homodimer by homology model
In the case of B1, the Km is reported as 48 ± 2 µM and the kcat is reported as 25.6 min^–1.
